Source: paper PMC10786891, “Massively parallel profiling of RNA-targeting CRISPR-Cas13d”

B1: target 1 insG 3' of 21,insG 3' of 7 (mixed)
RNA 1: CACCCGUGCAAAAAUGCAGGGGUCUAAAACUGAGCGGAUAACCUCUCUAUGG
RNA 2: GGGAAUGGAUCCACAUCUACGAAUUCGUACCGAUAGAGAGGUUAUCGCGCUCACCGAGAUCGGAAGAGCACACGU
B2: target 1 C7U,A20C (mixed)
RNA 1: CACCCGUGCAAAAAUGCAGGGGUCUAAAACUGAGCGGAUAACCUCUCUAUGG
RNA 2: GGGAAUGGAUCCACAUCUACGAAUUCGUACCCUAGAGAGGUUAUUCGCUCACCGAGAUCGGAAGAGCACACGU
B3: target 1 insC 3' of 19,insU 3' of 4 (mixed)
RNA 1: CACCCGUGCAAAAAUGCAGGGGUCUAAAACUGAGCGGAUAACCUCUCUAUGG
RNA 2: GGGAAUGGAUCCACAUCUACGAAUUCGUACCAUCAGAGAGGUUAUCCGCUUCACCGAGAUCGGAAGAGCACACGU
B4: target 1 insC 3' of 12,insG 3' of 7 (mixed)
RNA 1: CACCCGUGCAAAAAUGCAGGGGUCUAAAACUGAGCGGAUAACCUCUCUAUGG
RNA 2: GGGAAUGGAUCCACAUCUACGAAUUCGUACCAUAGAGAGGCUUAUCGCGCUCACCGAGAUCGGAAGAGCACACGU
B5: target 1 C4G,U11G (mixed)
RNA 1: CACCCGUGCAAAAAUGCAGGGGUCUAAAACUGAGCGGAUAACCUCUCUAUGG
RNA 2: GGGAAUGGAUCCACAUCUACGAAUUCGUACCAUAGAGAGGGUAUCCGGUCACCGAGAUCGGAAGAGCACACGU
B6: target 1 insU 3' of 13,insG 3' of 11 (mixed)
RNA 1: CACCCGUGCAAAAAUGCAGGGGUCUAAAACUGAGCGGAUAACCUCUCUAUGG
RNA 2: GGGAAUGGAUCCACAUCUACGAAUUCGUACCAUAGAGAGUGUGUAUCCGCUCACCGAGAUCGGAAGAGCACACGU
B7: target 1 A18U,A20U (mixed)
RNA 1: CACCCGUGCAAAAAUGCAGGGGUCUAAAACUGAGCGGAUAACCUCUCUAUGG
RNA 2: GGGAAUGGAUCCACAUCUACGAAUUCGUACCUUUGAGAGGUUAUCCGCUCACCGAGAUCGGAAGAGCACACGU
B8: target 1 complement block 5-7 (mixed)
RNA 1: CACCCGUGCAAAAAUGCAGGGGUCUAAAACUGAGCGGAUAACCUCUCUAUGG
RNA 2: GGGAAUGGAUCCACAUCUACGAAUUCGUACCAUAGAGAGGUUAUGGCCUCACCGAGAUCGGAAGAGCACACGU
B9: target 1 C4G,A14C (mixed)
RNA 1: CACCCGUGCAAAAAUGCAGGGGUCUAAAACUGAGCGGAUAACCUCUCUAUGG
RNA 2: GGGAAUGGAUCCACAUCUACGAAUUCGUACCAUAGAGCGGUUAUCCGGUCACCGAGAUCGGAAGAGCACACGU
B10: target 1 U19G,C21A (mixed)
RNA 1: CACCCGUGCAAAAAUGCAGGGGUCUAAAACUGAGCGGAUAACCUCUCUAUGG
RNA 2: GGGAAUGGAUCCACAUCUACGAAUUCGUACAAGAGAGAGGUUAUCCGCUCACCGAGAUCGGAAGAGCACACGU
B11: target 1 insA 3' of 22,insU 3' of 14 (mixed)
RNA 1: CACCCGUGCAAAAAUGCAGGGGUCUAAAACUGAGCGGAUAACCUCUCUAUGG
RNA 2: GGGAAUGGAUCCACAUCUACGAAUUCGUACACAUAGAGAUGGUUAUCCGCUCACCGAGAUCGGAAGAGCACACGU
B12: target 1 insA 3' of 8,insA 3' of 5 (mixed)
RNA 1: CACCCGUGCAAAAAUGCAGGGGUCUAAAACUGAGCGGAUAACCUCUCUAUGG
RNA 2: GGGAAUGGAUCCACAUCUACGAAUUCGUACCAUAGAGAGGUUAUACCGACUCACCGAGAUCGGAAGAGCACACGU
B13: target 1 C2U,G17A (mixed)
RNA 1: CACCCGUGCAAAAAUGCAGGGGUCUAAAACUGAGCGGAUAACCUCUCUAUGG
RNA 2: GGGAAUGGAUCCACAUCUACGAAUUCGUACCAUAAAGAGGUUAUCCGCUUACCGAGAUCGGAAGAGCACACGU
B14: target 1 G5A,U10C (mixed)
RNA 1: CACCCGUGCAAAAAUGCAGGGGUCUAAAACUGAGCGGAUAACCUCUCUAUGG
RNA 2: GGGAAUGGAUCCACAUCUACGAAUUCGUACCAUAGAGAGGUCAUCCACUCACCGAGAUCGGAAGAGCACACGU
B15: target 1 C2G,A20C (mixed)
RNA 1: CACCCGUGCAAAAAUGCAGGGGUCUAAAACUGAGCGGAUAACCUCUCUAUGG
RNA 2: GGGAAUGGAUCCACAUCUACGAAUUCGUACCCUAGAGAGGUUAUCCGCUGACCGAGAUCGGAAGAGCACACGU
B16: target 1 insU 3' of 4,insG 3' of 2 (mixed)
RNA 1: CACCCGUGCAAAAAUGCAGGGGUCUAAAACUGAGCGGAUAACCUCUCUAUGG
RNA 2: GGGAAUGGAUCCACAUCUACGAAUUCGUACCAUAGAGAGGUUAUCCGCUUCGACCGAGAUCGGAAGAGCACACGU
B17: target 1 C6A,A16C (mixed)
RNA 1: CACCCGUGCAAAAAUGCAGGGGUCUAAAACUGAGCGGAUAACCUCUCUAUGG
RNA 2: GGGAAUGGAUCCACAUCUACGAAUUCGUACCAUAGCGAGGUUAUCAGCUCACCGAGAUCGGAAGAGCACACGU
B18: target 1 insU 3' of 14,insU 3' of 14 (mixed)
RNA 1: CACCCGUGCAAAAAUGCAGGGGUCUAAAACUGAGCGGAUAACCUCUCUAUGG
RNA 2: GGGAAUGGAUCCACAUCUACGAAUUCGUACCAUAGAGAUUGGUUAUCCGCUCACCGAGAUCGGAAGAGCACACGU
B19: target 1 insU 3' of 13,insG 3' of 9 (mixed)
RNA 1: CACCCGUGCAAAAAUGCAGGGGUCUAAAACUGAGCGGAUAACCUCUCUAUGG
RNA 2: GGGAAUGGAUCCACAUCUACGAAUUCGUACCAUAGAGAGUGUUAGUCCGCUCACCGAGAUCGGAAGAGCACACGU
B20: target 1 insC 3' of 17,insU 3' of 15 (mixed)
RNA 1: CACCCGUGCAAAAAUGCAGGGGUCUAAAACUGAGCGGAUAACCUCUCUAUGG
RNA 2: GGGAAUGGAUCCACAUCUACGAAUUCGUACCAUAGCAGUAGGUUAUCCGCUCACCGAGAUCGGAAGAGCACACGU
B21: target 1 del7,del15 (mixed)
RNA 1: CACCCGUGCAAAAAUGCAGGGGUCUAAAACUGAGCGGAUAACCUCUCUAUGG
RNA 2: GGGAAUGGAUCCACAUCUACGAAUUCGUACCAUAGAAGGUUAUCGCUCACCGAGAUCGGAAGAGCACACGU
B22: target 1 insA 3' of 17,insU 3' of 12 (mixed)
RNA 1: CACCCGUGCAAAAAUGCAGGGGUCUAAAACUGAGCGGAUAACCUCUCUAUGG
RNA 2: GGGAAUGGAUCCACAUCUACGAAUUCGUACCAUAGAAGAGGUUUAUCCGCUCACCGAGAUCGGAAGAGCACACGU
B23: target 1 C2U,G13C (mixed)
RNA 1: CACCCGUGCAAAAAUGCAGGGGUCUAAAACUGAGCGGAUAACCUCUCUAUGG
RNA 2: GGGAAUGGAUCCACAUCUACGAAUUCGUACCAUAGAGACGUUAUCCGCUUACCGAGAUCGGAAGAGCACACGU
B24: target 1 G5C,G12C (mixed)
RNA 1: CACCCGUGCAAAAAUGCAGGGGUCUAAAACUGAGCGGAUAACCUCUCUAUGG
RNA 2: GGGAAUGGAUCCACAUCUACGAAUUCGUACCAUAGAGAGCUUAUCCCCUCACCGAGAUCGGAAGAGCACACGU
B25: target 1 insA 3' of 19,insG 3' of 7 (mixed)
RNA 1: CACCCGUGCAAAAAUGCAGGGGUCUAAAACUGAGCGGAUAACCUCUCUAUGG
RNA 2: GGGAAUGGAUCCACAUCUACGAAUUCGUACCAUAAGAGAGGUUAUCGCGCUCACCGAGAUCGGAAGAGCACACGU
B26: target 1 G12U,C21A (mixed)
RNA 1: CACCCGUGCAAAAAUGCAGGGGUCUAAAACUGAGCGGAUAACCUCUCUAUGG
RNA 2: GGGAAUGGAUCCACAUCUACGAAUUCGUACAAUAGAGAGUUUAUCCGCUCACCGAGAUCGGAAGAGCACACGU
B27: target 1 insU 3' of 17,insU 3' of 4 (mixed)
RNA 1: CACCCGUGCAAAAAUGCAGGGGUCUAAAACUGAGCGGAUAACCUCUCUAUGG
RNA 2: GGGAAUGGAUCCACAUCUACGAAUUCGUACCAUAGUAGAGGUUAUCCGCUUCACCGAGAUCGGAAGAGCACACGU
B28: target 1 insA 3' of 17,insG 3' of 9 (mixed)
RNA 1: CACCCGUGCAAAAAUGCAGGGGUCUAAAACUGAGCGGAUAACCUCUCUAUGG
RNA 2: GGGAAUGGAUCCACAUCUACGAAUUCGUACCAUAGAAGAGGUUAGUCCGCUCACCGAGAUCGGAAGAGCACACGU

Biological target: T1, EsCas13d, nuclease-dead (Eubacterium siraeum, UniProt B0MS50, R295A;H300A;R849A;H854A)
T1 sequence: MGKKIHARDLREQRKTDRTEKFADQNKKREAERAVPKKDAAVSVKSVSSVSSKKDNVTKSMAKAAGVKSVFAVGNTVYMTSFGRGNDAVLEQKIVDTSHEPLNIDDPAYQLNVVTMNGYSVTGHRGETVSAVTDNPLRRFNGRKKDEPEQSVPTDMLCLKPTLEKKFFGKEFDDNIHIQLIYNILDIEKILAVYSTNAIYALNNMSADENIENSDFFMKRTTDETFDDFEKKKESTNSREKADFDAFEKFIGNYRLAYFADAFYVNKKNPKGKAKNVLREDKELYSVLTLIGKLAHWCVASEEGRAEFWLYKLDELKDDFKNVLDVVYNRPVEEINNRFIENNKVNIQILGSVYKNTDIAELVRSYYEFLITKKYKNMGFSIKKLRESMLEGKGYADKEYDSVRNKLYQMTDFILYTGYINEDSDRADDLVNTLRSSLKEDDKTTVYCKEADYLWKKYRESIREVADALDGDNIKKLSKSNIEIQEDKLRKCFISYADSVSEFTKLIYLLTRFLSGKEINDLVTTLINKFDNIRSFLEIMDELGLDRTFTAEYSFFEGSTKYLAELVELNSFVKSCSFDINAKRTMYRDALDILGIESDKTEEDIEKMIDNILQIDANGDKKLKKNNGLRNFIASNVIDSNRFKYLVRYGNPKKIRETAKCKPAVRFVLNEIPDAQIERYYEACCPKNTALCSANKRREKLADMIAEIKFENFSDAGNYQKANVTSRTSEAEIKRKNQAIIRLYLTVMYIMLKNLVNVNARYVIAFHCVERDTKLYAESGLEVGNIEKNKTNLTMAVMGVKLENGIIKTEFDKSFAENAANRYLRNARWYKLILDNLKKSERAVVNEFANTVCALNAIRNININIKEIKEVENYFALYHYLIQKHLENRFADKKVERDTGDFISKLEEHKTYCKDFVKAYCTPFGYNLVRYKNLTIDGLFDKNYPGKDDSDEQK
Assay: crRNA (strand 1, pre-loaded); Mg2+; 40 mM Tris-HCl pH 7.5, 150 mM NaCl, 6 mM MgCl2, 1 mM DTT, 0.1% Tween-20, 0.2 mg/ml BSA; 25 C; 10 min per concentration, then washed
Details: tags: His6-TwinStrep-SUMO cleaved; N-terminal SNAP kept (SNAP-Surface 488); label: 3' end held by stalled T7 RNA polymerase

First: B1
Second: B2
The Kd of the first is 1.8-fold higher: 68 ± 5 nM for the first, 37 ± 8 nM for the second.

First: B3
Second: B4
The Kd of the first is 2-fold higher: 32.2 ± 3.2 nM for the first, 16.2 ± 0.9 nM for the second. The second binds more tightly here.

First: B5
Second: B6
The Kd of the first is 6.8-fold lower: 5.73 ± 0.29 nM for the first, 39 ± 8 nM for the second. The first binds more tightly here.

Going from B7 to B8, the Kd falls from 95 ± 17 nM to 32.9 ± 1.5 nM (2.9-fold).

Compared with B9, B10 is 4-fold higher in Kd: 14.1 ± 2.8 nM for the first, 56 ± 7 nM for the second.

First: B11
Second: B12
The Kd of the first is 2.2-fold higher: 41 ± 20 nM for the first, 18.8 ± 1.5 nM for the second. The second binds more tightly here.

B13 and B14 are within 1.5-fold of each other in Kd: 34.4 ± 2.7 nM for the first, 47 ± 5 nM for the second.

Compared with B15, B16 is 2.9-fold lower in Kd: 21.8 ± 1.1 nM for the first, 7.4 ± 0.5 nM for the second.

First: B17
Second: B18
The Kd of the first is 1.7-fold higher: 35.4 ± 2.2 nM for the first, 21 ± 1.3 nM for the second. The second binds more tightly here.

B19 and B20 are within 1.5-fold of each other in Kd: 24.8 ± 3.2 nM for the first, 19.1 ± 1 nM for the second.

Compared with B21, B22 is 1.7-fold lower in Kd: 17.3 ± 0.7 nM for the first, 10.4 ± 0.6 nM for the second. The second binds more tightly here.

B23 and B24 are within 1.5-fold of each other in Kd: 44 ± 7 nM for the first, 30.4 ± 1.8 nM for the second.

Compared with B25, B26 is 1.7-fold higher in Kd: 16.3 ± 1.4 nM for the first, 27.4 ± 2.3 nM for the second.

B27 and B28 are within error of each other in Kd: 19.2 ± 2.1 nM for the first, 22.2 ± 2.5 nM for the second.
